Test results reported in patent US20130066054A1 (UCB, published 2013).
Numbering of substitutions follows the chain as printed. Numbers in names are those of the source. Where “and” joins values, the source holds several entries; their conditions need not be identical. Identical values can stand only once.

B1: A26Fab-(3xG4S)-dsFv645 (bispecific antibody)
heavy: EVQLVESGGGLVQPGGSLRLSCAASGFTFTNYGIHWIRQAPGKGLEWVASISPSGGLTYYRDSVKGRFTISRDDAKNSPYLQMNSLRAEDTAVYYCATGGEGIFDYWGQGTLVTVSSASTKGPSVFPLAPSSKSTSGGTAALGCLVKDYFPEPVTVSWNSGALTSGVHTFPAVLQSSGLYSLSSVVTVPSSSLGTQTYICNVNHKPSNTKVDKKVEPKSCSGGGGSGGGGSGGGGSEVQLLESGGGLVQPGGSLRLSCAVSGIDLSNYAINWVRQAPGKCLEWIGIIWASGTTFYATWAKGRFTISRDSTTVYLQMNSLRAEDTAVYYCARTVPGYSTAPYFDLWGQGTLVTVSS
light: DIQMTQSPSSLSASVGDRVTITCRATQSIYNALAWYQQKPGKAPKLLIYNANTLHTGVPSRFSASGSGTDSTLTISSLQPEDFATYYCQQYYDYPLTFGGGTKVEIKRTVAAPSVFIFPPSDEQLKSGTASVVCLLNNFYPREAKVQWKVDNALQSGNSQESVTEQDSKDSTYSLSSTLTLSKADYEKHKVYACEVTHQGLSSPVTKSFNRGECSGGGGSGGGGSGGGGSDIVMTQSPSSVSASVGDRVTITCQSSPSVWSNFLSWYQQKPGKAPKLLIYEASKLTSGVPSRFKGSGSGTDFTLTISSLQPEDFATYYCGGGYSSISDTTFGCGTKVEIK
modifications: 645 Fv disulfide between Cys44 of SEQ ID NO 227 and Cys100 of SEQ ID NO 44 (Kabat); both cysteines are already in the letters
notes: Fab-dsFv: anti-OX40 A26 Fab with the anti-HSA 645 disulfide-stabilised Fv at the C-termini; The asterisk of 'A26-645std*' is not explained; also called A26-645std; A26-645std*
B2: A26-645 Ser77Cys K (bispecific antibody)
heavy: B1 heavy
light: B1 light with S308C
notes: Surface cysteine mutant of A26-645 in the 645 Fv light domain (Kabat numbering); also called S77C 645 Fv light; mutation 14
B3: A26-645 Ser163Cys H (bispecific antibody)
heavy: B1 heavy with S160C
light: B1 light
modifications: 645 Fv disulfide between Cys44 of SEQ ID NO 227 and Cys100 of SEQ ID NO 44 (Kabat); both cysteines are already in the letters
notes: Surface cysteine mutant of A26-645 (Kabat numbering); also called S163C CH1; mutation 2
B4: A26-645 Lys145Cys K (bispecific antibody)
heavy: B1 heavy
light: B1 light with K145C
notes: Surface cysteine mutant of A26-645 (Kabat numbering); also called K145C CK; mutation 9
B5: A26-645 Ser82bCys H (bispecific antibody)
heavy: B1 heavy with S318C
light: B1 light
modifications: 645 Fv disulfide between Cys44 of SEQ ID NO 227 and Cys100 of SEQ ID NO 44 (Kabat); both cysteines are already in the letters
notes: Surface cysteine mutant of A26-645 in the 645 Fv heavy domain (Kabat numbering); also called S82bC 645 Fv Heavy; mutation 6
B6: A26-645 Thr116Cys H (bispecific antibody)
heavy: B1 heavy with T120C
light: B1 light
modifications: 645 Fv disulfide between Cys44 of SEQ ID NO 227 and Cys100 of SEQ ID NO 44 (Kabat); both cysteines are already in the letters
notes: Surface cysteine mutant of A26-645 (Kabat numbering); also called T116C CH1; mutation 1
B7: A26-645 Lys149Cys K (bispecific antibody)
heavy: B1 heavy
light: B1 light with K149C
notes: Surface cysteine mutant of A26-645 (Kabat numbering); also called K149C CK; mutation 10
B8: A26-645 Cys233Ser H (bispecific antibody)
heavy: B1 heavy with C220S
light: B1 light
modifications: 645 Fv disulfide between Cys44 of SEQ ID NO 227 and Cys100 of SEQ ID NO 44 (Kabat); both cysteines are already in the letters
notes: Control mutant of A26-645 without the heavy chain's interchain cysteine (Kabat numbering); also called C233S CH1; mutation 5
B9: A26-645 Ser182Cys H (bispecific antibody)
heavy: B1 heavy with S177C
light: B1 light
modifications: 645 Fv disulfide between Cys44 of SEQ ID NO 227 and Cys100 of SEQ ID NO 44 (Kabat); both cysteines are already in the letters
notes: Surface cysteine mutant of A26-645; also called A26-645 Ser180Cys H; S182C CH1
B10: A26-645 Lys107Cys K (bispecific antibody)
heavy: B1 heavy
light: B1 light with K340C
notes: Surface cysteine mutant of A26-645 in the 645 Fv light domain (Kabat numbering); also called K107C 645 Fv light; mutation 15
B11: A26-645 Asn210Cys K (bispecific antibody)
heavy: B1 heavy
light: B1 light with N210C
modifications: 645 Fv disulfide between Cys44 of SEQ ID NO 227 and Cys100 of SEQ ID NO 44 (Kabat); both cysteines are already in the letters
notes: Surface cysteine mutant of A26-645 (Kabat numbering); also called N210C CK; mutation 12
B12: A26-645 Ser171Cys K (bispecific antibody)
heavy: B1 heavy
light: B1 light with S171C
notes: Surface cysteine mutant of A26-645 (Kabat numbering); also called S171C CK; mutation 11
B13: A26-645 Glu143Cys K (bispecific antibody)
heavy: B1 heavy
light: B1 light with E143C
notes: Surface cysteine mutant of A26-645 (Kabat numbering); also called E143C CK; mutation 8
B14: A26-645 Cys214Ser K (bispecific antibody)
heavy: B1 heavy
light: B1 light with C214S
modifications: 645 Fv disulfide between Cys44 of SEQ ID NO 227 and Cys100 of SEQ ID NO 44 (Kabat); both cysteines are already in the letters
notes: Control mutant of A26-645 without the light chain's interchain cysteine (Kabat numbering); also called C214S CK; mutation 13

target: T1, OX40 (UniProt P43489 29-214); assay: SPR (Biacore 3000), Fab-dsFv captured, antigen injected, 1:1 fit;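 further: capture antibody amine-coupled on chip, 3 min antigen association then 20 min dissociation, antigen titrated, reference flow-cell and buffer blanks subtracted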
T1 construct: also called O × 40
T1 sequence (looked up): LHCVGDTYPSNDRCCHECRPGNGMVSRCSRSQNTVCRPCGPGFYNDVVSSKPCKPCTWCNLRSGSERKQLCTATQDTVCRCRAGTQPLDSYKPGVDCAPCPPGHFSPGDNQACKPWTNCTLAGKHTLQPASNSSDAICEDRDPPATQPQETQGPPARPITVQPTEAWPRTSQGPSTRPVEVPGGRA
Procedure: (§1) Covalent immobilisation of the capture antibody was achieved by standard amine coupling chemistry.
(§2) Each assay cycle consisted of firstly capturing the Fab-dsFv using a 1 min injection, before an association phase consisting of a 3 min injection of antigen, after which dissociation was monitored for 20 min. After each cycle, the capture surface was regenerated with 2×1 min injections of 40 mM HCl followed by 30 s of 5 mM NaOH. The flow rates used were 10 μl/min for capture, 30 μl/min for association and dissociation phases, and 10 μl/min for regeneration.
(§3) For kinetic assays, a titration of antigen was performed, a blank flow-cell was used for reference subtraction and buffer-blank injections were included to subtract instrument noise and drift.

With B1 the Kd was 0.328 nM and 0.33 nM and 0.463 nM and 0.46 nM.
With B2 the Kd was 0.248 nM and 0.25 nM.
For B3, the Kd was 0.265 nM and 0.27 nM.
For B4, the Kd was 0.241 nM and 0.24 nM.
For B5, the Kd was 0.247 nM and 0.25 nM.
B7 was tested, and the Kd was 0.231 nM and 0.23 nM.
For B9, the Kd was 0.247 nM and 0.25 nM.
For B10, the Kd was 0.234 nM and 0.23 nM.
B11 was tested, and the Kd was 0.229 nM and 0.23 nM.
For B12, the Kd was 0.194 nM and 0.19 nM.
In the case of B13, the Kd is reported as 0.325 nM and 0.33 nM.
In the case of B14, the Kd is reported as 0.278 nM and 0.28 nM.

B1 was tested, and the koff was 0.000149 s⁻¹ and 0.000191 s⁻¹.

For B1, the kon was 452000 M⁻¹ s⁻¹ and 413000 M⁻¹ s⁻¹.

Point of comparison: B10, koff 0.00012 s⁻¹. Against it:
- B2 — within 1.5-fold, 0.000117 s⁻¹
- B3 — within 1.5-fold, 0.000146 s⁻¹
- B4 — within 1.5-fold, 0.00011 s⁻¹
- B5 — within 1.5-fold, 0.000117 s⁻¹
- B6 — within 1.5-fold, 0.000146 s⁻¹
- B7 — within 1.5-fold, 0.000107 s⁻¹
- B8 — within 1.5-fold, 0.000124 s⁻¹
- B9 — within 1.5-fold, 0.000108 s⁻¹
- B11 — within 1.5-fold, 0.000111 s⁻¹
- B12 — within 1.5-fold, 9.24e-05 s⁻¹
- B13 — within 1.5-fold, 0.000155 s⁻¹
- B14 — within 1.5-fold, 0.000122 s⁻¹

Point of comparison: B7, kon 465000 M⁻¹ s⁻¹. Against it:
- B2 — within 1.5-fold, 470000 M⁻¹ s⁻¹
- B3 — within 1.5-fold, 550000 M⁻¹ s⁻¹
- B4 — within 1.5-fold, 457000 M⁻¹ s⁻¹
- B5 — within 1.5-fold, 473000 M⁻¹ s⁻¹
- B6 — within 1.5-fold, 540000 M⁻¹ s⁻¹
- B8 — within 1.5-fold, 461000 M⁻¹ s⁻¹
- B9 — within 1.5-fold, 437000 M⁻¹ s⁻¹
- B10 — within 1.5-fold, 515000 M⁻¹ s⁻¹
- B11 — within 1.5-fold, 483000 M⁻¹ s⁻¹
- B12 — within 1.5-fold, 477000 M⁻¹ s⁻¹
- B13 — within 1.5-fold, 477000 M⁻¹ s⁻¹
- B14 — within 1.5-fold, 437000 M⁻¹ s⁻¹

Point of comparison: B8, Kd 0.27 nM. Against it:
- B6 — the same, 0.27 nM

target: T2, human serum albumin (human, UniProt P02768 25-609); assay: as above
T2 construct: also called HSA
Procedure: as §1, §2, §3

B1 was tested, and the Kd was 3.57 nM and 4.11 nM.

For B1, the koff was 0.000461 s⁻¹ and 0.000421 s⁻¹.

For B1, the kon was 129000 M⁻¹ s⁻¹ and 103000 M⁻¹ s⁻¹.

Point of comparison: B12, Kd 2.06 nM. Against it:
- B2 — within 1.5-fold, 2.75 nM
- B3 — 1.6-fold higher, 3.34 nM
- B4 — within 1.5-fold, 1.89 nM
- B5 — 1.9-fold lower, 1.09 nM
- B6 — within 1.5-fold, 1.87 nM
- B7 — within 1.5-fold, 1.72 nM
- B8 — within 1.5-fold, 1.76 nM
- B9 — within 1.5-fold, 1.95 nM
- B10 — within 1.5-fold, 2.28 nM
- B11 — within 1.5-fold, 1.6 nM
- B13 — within 1.5-fold, 2.2 nM
- B14 — within 1.5-fold, 1.7 nM

Point of comparison: B4, koff 0.000259 s⁻¹. Against it:
- B2 — within 1.5-fold, 0.000282 s⁻¹
- B3 — 2.8-fold higher, 0.000722 s⁻¹
- B5 — within 1.5-fold, 0.000257 s⁻¹
- B6 — within 1.5-fold, 0.000351 s⁻¹
- B7 — within 1.5-fold, 0.00025 s⁻¹
- B8 — within 1.5-fold, 0.000275 s⁻¹
- B9 — 1.6-fold higher, 0.000411 s⁻¹
- B10 — within 1.5-fold, 0.000342 s⁻¹
- B11 — within 1.5-fold, 0.000284 s⁻¹
- B12 — within 1.5-fold, 0.000257 s⁻¹
- B13 — within 1.5-fold, 0.000337 s⁻¹
- B14 — within 1.5-fold, 0.000282 s⁻¹

Point of comparison: B9, kon 210000 M⁻¹ s⁻¹. Against it:
- B2 — 2.1-fold lower, 102000 M⁻¹ s⁻¹
- B3 — within 1.5-fold, 216000 M⁻¹ s⁻¹
- B4 — 1.5-fold lower, 137000 M⁻¹ s⁻¹
- B5 — within 1.5-fold, 236000 M⁻¹ s⁻¹
- B6 — within 1.5-fold, 188000 M⁻¹ s⁻¹
- B7 — within 1.5-fold, 145000 M⁻¹ s⁻¹
- B8 — within 1.5-fold, 157000 M⁻¹ s⁻¹
- B10 — within 1.5-fold, 150000 M⁻¹ s⁻¹
- B11 — within 1.5-fold, 178000 M⁻¹ s⁻¹
- B12 — 1.7-fold lower, 125000 M⁻¹ s⁻¹
- B13 — within 1.5-fold, 153000 M⁻¹ s⁻¹
- B14 — within 1.5-fold, 166000 M⁻¹ s⁻¹
